Legend:
RsAgo WT [1] = molecular target: T1, RsAgo WT (Rhodobacter sphaeroides (ATCC 17025D-5), UniProt A4WYU7 1-777); experiment: fluorescence polarization; 5 mM Mg2+; FP: 20 mM HEPES-KOH pH 7.5, 200 mM NaCl, 5 mM MgCl2, 0.01 mg/ml E. coli total tRNA, 0.01% NP-40, 10 pM probe, 25 C; EMSA: 20 mM HEPES-KOH pH 7.5, 200 mM NaCl, 5
T1 sequence: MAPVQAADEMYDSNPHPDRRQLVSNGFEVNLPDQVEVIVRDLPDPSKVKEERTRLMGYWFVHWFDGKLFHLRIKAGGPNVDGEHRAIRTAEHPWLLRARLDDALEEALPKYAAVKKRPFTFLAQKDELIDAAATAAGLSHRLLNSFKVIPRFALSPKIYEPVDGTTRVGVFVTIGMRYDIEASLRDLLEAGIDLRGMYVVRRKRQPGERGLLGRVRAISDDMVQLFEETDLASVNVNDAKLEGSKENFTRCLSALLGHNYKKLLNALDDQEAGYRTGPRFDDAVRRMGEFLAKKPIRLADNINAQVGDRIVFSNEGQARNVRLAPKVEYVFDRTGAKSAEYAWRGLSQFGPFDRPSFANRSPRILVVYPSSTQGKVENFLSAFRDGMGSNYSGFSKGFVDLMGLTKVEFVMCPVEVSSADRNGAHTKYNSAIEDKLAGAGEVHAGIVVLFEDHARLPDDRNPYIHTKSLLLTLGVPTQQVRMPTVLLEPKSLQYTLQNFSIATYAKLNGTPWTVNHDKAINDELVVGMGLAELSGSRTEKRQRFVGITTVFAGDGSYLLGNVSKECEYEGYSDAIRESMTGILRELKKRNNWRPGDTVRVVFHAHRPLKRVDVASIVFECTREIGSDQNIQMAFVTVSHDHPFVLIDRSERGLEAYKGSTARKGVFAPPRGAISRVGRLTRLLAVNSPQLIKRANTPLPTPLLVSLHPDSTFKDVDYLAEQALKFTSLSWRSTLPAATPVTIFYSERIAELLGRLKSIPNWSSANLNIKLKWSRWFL

RsAgo WT [2] = molecular target: T1, RsAgo WT; experiment: EMSA; 5 mM Mg2+; FP: 20 mM HEPES-KOH pH 7.5, 200 mM NaCl, 5 mM MgCl2, 0.01 mg/ml E. coli total tRNA, 0.01% NP-40, 10 pM probe, 25 C; EMSA: 20 mM HEPES-KOH pH 7.5, 200 mM NaCl, 5
RsAgo delN20 = molecular target: T2, RsAgo delN20 (Rhodobacter sphaeroides (ATCC 17025D-5), UniProt A4WYU7 21-777, del1-20); experiment: X-ray crystal structure (2 A); Mg2+ at guide phosphates 1 and 3 and L777 carboxylate; FP: 20 mM HEPES-KOH pH 7.5, 200 mM NaCl, 5 mM MgCl2, 0.01 mg/ml E. coli total tRNA, 0.01% NP-40, 10 pM probe, 25 C; EMSA: 20 mM HEPES-KOH pH 7.5, 200 mM NaCl, 5
T2 sequence: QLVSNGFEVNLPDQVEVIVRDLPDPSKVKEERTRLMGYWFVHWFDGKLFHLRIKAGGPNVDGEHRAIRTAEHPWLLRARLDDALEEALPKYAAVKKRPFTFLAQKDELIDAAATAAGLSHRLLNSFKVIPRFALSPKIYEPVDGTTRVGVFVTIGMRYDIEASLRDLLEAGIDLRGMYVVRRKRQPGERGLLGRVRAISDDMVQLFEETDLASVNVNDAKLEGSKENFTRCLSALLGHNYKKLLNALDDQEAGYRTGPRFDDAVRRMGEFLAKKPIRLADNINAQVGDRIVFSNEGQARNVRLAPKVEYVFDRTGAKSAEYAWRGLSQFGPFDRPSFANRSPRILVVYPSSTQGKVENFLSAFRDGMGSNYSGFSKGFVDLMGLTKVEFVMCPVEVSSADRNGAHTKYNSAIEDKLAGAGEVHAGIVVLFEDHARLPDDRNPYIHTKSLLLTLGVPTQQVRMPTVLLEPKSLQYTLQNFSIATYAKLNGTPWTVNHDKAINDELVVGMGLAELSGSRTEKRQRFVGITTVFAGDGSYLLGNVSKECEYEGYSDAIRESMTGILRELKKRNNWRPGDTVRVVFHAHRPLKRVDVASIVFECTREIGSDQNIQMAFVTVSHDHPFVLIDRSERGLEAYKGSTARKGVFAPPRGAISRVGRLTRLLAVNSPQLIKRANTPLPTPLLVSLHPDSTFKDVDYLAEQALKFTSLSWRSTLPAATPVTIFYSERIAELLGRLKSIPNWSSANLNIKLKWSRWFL

RsAgo delP45-W63 = molecular target: T3, RsAgo delP45-W63 (Rhodobacter sphaeroides (ATCC 17025D-5), UniProt A4WYU7 1-777, del45-63); experiment: EMSA; RsAgo-guide RNA complex titrated on target DNA; FP: 20 mM HEPES-KOH pH 7.5, 200 mM NaCl, 5 mM MgCl2, 0.01 mg/ml E. coli total tRNA, 0.01% NP-40, 10 pM probe, 25 C; EMSA: 20 mM HEPES-KOH pH 7.5, 200 mM NaCl, 5
T3 sequence: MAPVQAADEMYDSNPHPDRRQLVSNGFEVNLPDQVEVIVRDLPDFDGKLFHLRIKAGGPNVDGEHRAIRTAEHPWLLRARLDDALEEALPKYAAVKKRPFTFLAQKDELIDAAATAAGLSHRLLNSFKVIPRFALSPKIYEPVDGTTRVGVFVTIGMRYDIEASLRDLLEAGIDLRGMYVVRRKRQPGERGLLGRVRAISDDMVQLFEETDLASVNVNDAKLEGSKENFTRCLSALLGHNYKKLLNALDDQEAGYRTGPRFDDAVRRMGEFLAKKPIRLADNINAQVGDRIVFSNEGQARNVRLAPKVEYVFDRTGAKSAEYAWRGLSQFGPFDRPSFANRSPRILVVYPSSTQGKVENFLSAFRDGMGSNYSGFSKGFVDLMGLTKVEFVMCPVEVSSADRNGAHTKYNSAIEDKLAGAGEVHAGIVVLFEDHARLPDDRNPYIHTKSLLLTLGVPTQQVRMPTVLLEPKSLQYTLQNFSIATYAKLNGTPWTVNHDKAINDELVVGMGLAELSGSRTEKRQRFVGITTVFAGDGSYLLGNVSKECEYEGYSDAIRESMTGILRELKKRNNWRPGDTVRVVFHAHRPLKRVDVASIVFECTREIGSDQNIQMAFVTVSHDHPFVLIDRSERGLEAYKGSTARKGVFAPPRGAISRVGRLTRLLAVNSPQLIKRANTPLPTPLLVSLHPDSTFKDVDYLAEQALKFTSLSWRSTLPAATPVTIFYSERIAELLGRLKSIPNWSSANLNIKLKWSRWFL

Binder: TTACAACCTACTACCTCG (ssDNA, 5'-phosphate) [5'P-DNA, FAM]
- Kd (RsAgo WT [1]): 42.6 ± 3.4 nM

B1: 5'P-RNA/DNA (RR/DD) (DNA:RNA)
RNA: UUACAACCUACUACCUCG
DNA: CGAGGTAGTAGGTTGTAA
modifications: 5'-phosphate on guide
- binding result (RsAgo WT [2]): binds

Binder: GUACAACCUACUACCUCG (ssRNA, 5'-phosphate) [5'G-RNA, FAM]
- Kd (RsAgo WT [1]): 181 ± 13.3 nM

Binder: CUACAACCUACUACCUCG (ssRNA, 5'-phosphate) [5'C-RNA, FAM]
- Kd (RsAgo WT [1]): 67 ± 3.5 nM

B2: 18-nt guide RNA/18-nt target DNA (crystal) (DNA:RNA)
RNA: UUACAACCUACUACCUCG
DNA: CGAGGTAGTAGGTTGTAA
modifications: 5'-phosphate on guide
- binding result (RsAgo delN20): binds

Binder: UUACAACCUACUACCUCG (ssRNA, 5'-OH) [5'OH-RNA, FAM]
- Kd (RsAgo WT [1]): 1140 ± 54 nM

Binder: AUACAACCUACUACCUCG (ssRNA, 5'-phosphate) [5'A-RNA, FAM]
- Kd (RsAgo WT [1]): 24.8 ± 1.7 nM

B3: guide 5'P-RNA + 70-base target DNA (DNA:RNA)
RNA: UUACAACCUACUACCUCG
DNA: TAAAATCTTAAAGTTATTATTTCTATACGAGGTAGTAGGTTGTAATTATCACAATTTATAGTAGTATTAA
modifications: 5'-phosphate on guide
- binding result (RsAgo delP45-W63): no binding
